# Experimental data from patent publication US20040053368A1 (published 2004).
# B1: human FNCBD/human EGF hybrid polypeptide (FNCBD-EGF) (other)
# chain: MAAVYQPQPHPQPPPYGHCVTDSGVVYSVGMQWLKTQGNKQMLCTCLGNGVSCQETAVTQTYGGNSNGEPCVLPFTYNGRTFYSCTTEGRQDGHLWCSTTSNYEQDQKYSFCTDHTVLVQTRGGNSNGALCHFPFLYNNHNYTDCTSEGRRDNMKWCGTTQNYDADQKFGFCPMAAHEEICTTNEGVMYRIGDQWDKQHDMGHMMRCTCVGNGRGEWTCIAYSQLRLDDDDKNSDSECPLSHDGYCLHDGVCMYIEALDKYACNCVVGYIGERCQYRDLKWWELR
# notes: also called FN484-EGF; FNCBD/EGF hybrid polypeptide
# Molecular target: T1, bovine serum albumin (BSA, Sigma) (bovine, UniProt P02769 25-607)
# T1 construct: Control protein coated on the ELISA plate
# Test: ELISA, serum albumin coated at 1 mg/ml, detected with anti-human FNCBD monoclonal antibody
# Description: By the enzyme-linked immunosorbent assay (ELISA), binding ability of the FNCBD-bFGF and the FNCBD-EGF to bovine native collagen (I-AC, Koken), bovine atelocollagen (I-PC, Koken), and bovine serum albumin (BSA, Sigma) was evaluated.
# First, 1 mg/ml solutions of native collagen, atelocollagen, and serum albumin were respectively dispensed in the wells of a flat-bottom 96-well ELISA plate at 200 μl/well, and the plate was allowed to stand overnight at 4° C.
# The wells were washed three times with PBS containing 0.05% Tween 20, and 100 μl of anti-human FNCBD monoclonal antibody (Takara Shuzo) diluted 1:1000 was dispensed in the wells and allowed to stand at room temperature for 1 hour. The wells were washed three times with 0.05% Tween 20/PBS, and 100 μl of peroxidase-labelled anti-mouse immunoglobulin polyclonal antibody (Dako Japan) diluted 1:1000 was dispensed in the wells and allowed to stand at room temperature for 1 hour. After washing the wells 6 times with 0.05% Tween 20/PBS, 0.1M citrate buffer, pH 4.7 containing 1 mg/ml o-phenylenediamine and 0.03% hydrogen peroxide was dispensed in the wells and allowed to stand for 10 minutes. The reaction was then terminated by addition of 50 μl of 4N sulfuric acid and absorption at 492-690 nm was measured.
# T1 sequence (P02769 25-607 limits assumed): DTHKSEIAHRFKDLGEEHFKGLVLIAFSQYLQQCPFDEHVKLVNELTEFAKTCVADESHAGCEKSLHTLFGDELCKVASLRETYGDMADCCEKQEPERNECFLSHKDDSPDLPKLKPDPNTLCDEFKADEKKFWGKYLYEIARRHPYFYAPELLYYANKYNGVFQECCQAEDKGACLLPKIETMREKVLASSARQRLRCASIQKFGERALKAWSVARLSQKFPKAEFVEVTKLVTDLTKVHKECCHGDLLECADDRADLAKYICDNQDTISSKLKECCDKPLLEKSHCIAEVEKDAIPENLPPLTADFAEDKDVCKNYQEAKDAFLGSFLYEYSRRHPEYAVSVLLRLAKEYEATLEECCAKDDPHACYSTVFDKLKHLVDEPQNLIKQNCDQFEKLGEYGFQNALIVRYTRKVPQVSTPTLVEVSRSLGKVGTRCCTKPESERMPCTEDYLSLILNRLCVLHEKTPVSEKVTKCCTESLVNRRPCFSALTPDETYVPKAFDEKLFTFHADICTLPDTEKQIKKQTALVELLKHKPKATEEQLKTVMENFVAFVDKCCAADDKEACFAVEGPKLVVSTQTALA
binder,measurement,value
B1,binding result,no binding
